Biological target: Map205 (UniProt P23226)
Test: PrA-Map205 affinity purification, GFP blot
Conditions: reference: Polo WT-GFP with Aurora B–Myc; sites T182

Polo (from UniProt P52304) Polo T182A-GFP with Aurora B–Myc
binding against the reference: stronger

— PMC4210448
